The source of these data is PMC10536698.

This series concerns CcpA (Streptococcus agalactiae GD201008-001), ORF:5b4dc1e2. Briefly: EMSA. To be noted: EMSA: 20 mM Tris-HCl pH 7.5, 30 mM KCl, 1 mM DTT, 1 mM EDTA, 10% glycerol, 20 uL, 30 min at 37 C; 10% PAGE in 0.5x TBE on ice. In general terms: Mobility shift assays separate free from complexed probe on a gel.

Consider “AAGTTTTCTCCTTTTGTATTACATTCTAGAGACTAAAGGAGATGTTGAAAATTTCTCCTAATCCCTTTAAATAACATTCTAATCATATCATAAATGTCTATAATTTTAAATTGTGAAAACGCCTTTTTTATGATAAACTTAAAAGTGGACTTTCTATATGAAATCTAGAAAAAAATTGAGGTATAAAC (double strand) [luxS promoter]”, for which the binding entry was “binds”.
Regarding “AGTATTTGTAAAAGCTAATCTTTAGATTAGGCTTTTTTAGTTTATTGATAGTTTTTGGAAGAAAATGCTTGACATTGAAAGAAAAAGAGATATAATTAAATTGCAAACGATTTCAATTCAAGGAGGGAC (double strand) [fruRKI promoter]”, the binding result is on record as “binds”.
